# The RNAGym collection of RNA variant scans (doi:10.7554/elife.90254)
# B1: OR4K15 (parent)
# chain: GUUAACGGUCAUAGGCCAUGGAAACUAGGAGCACCAUUUCGCUGCCAGUGAAGAAAUGAACAAAGAAAAUCUGGGCCAGGCAGGCAUCAAAAGAAAUAGUCUUGCGCUCAACCAGAAAGUCUGUAAUCAUUUUAAGGGUA
# Variants of: B1
# Test: self-cleavage, relative activity (ratio to wild type); higher = more cleavage; in vitro, sequencing; the parent is a self-cleaving ribozyme
row,Variant,self-cleavage
1,A54U A63G,1.93
2,A55G G93U,1.76
3,A56U A114G,0.36
4,A56U A114U,0.04
5,U57A U132A,0.7
6,A55C A129G,1.2
7,A56G A118G,1.19
8,U57C A114C,0.04
9,U57C A114U,0.05
10,A54G U139C,1.68
11,U57C A117C,0.7
12,A56C U133A,1.4
13,A55G A62U,1.41
14,U57C A69C,0.84
15,A55G G115A,0.14
16,A55G G115U,0.03
17,A54U,1.2
18,A55G U97C,1.27
19,A55G U97A,1.51
20,A55U A59U,1.92
21,U57C U103C,0.86
22,U57C U108C,0.01
23,U57A C105U,0.04
24,A56G A92G,1.68

row,Variant,self-cleavage
1,A56G A92U,2.54
2,A55U A96C,0.74
3,A56G G79A,0.1
4,A56G U108C,0.01
5,A54U A78G,0.25
6,A54U A78C,0.29
7,A54U A78U,0.29
8,A56U,1.54
9,A56C,1.33
10,A56G,0.72
11,A54U G74U,0.02
12,A55G,1.06
13,A55C,0.94
14,A55U,1.13
15,U57A U130A,0.77
16,A55G A64G,0.88
17,A55G A64U,2.41
18,A54U U127C,0.18
19,A55C A78C,0.25
20,U57A U108A,0.03
21,U57A U108C,0.02
22,A56C A69G,1.24
23,A54G U124C,0.75
24,A55U A111G,0.02

row,Variant,self-cleavage
1,A54U A134G,1.32
2,A55U U139C,0.56
3,U57A U133C,1.08
4,A54U U108C,0.01
5,U57A A116U,0.15
6,U57A A116G,0.94
7,A54G G84C,0.61
8,U57C A60U,1.78
9,U57C A60G,1.01
10,A55C U103A,0.38
11,U57C A62G,0.7
12,A55G C85U,1.27
13,A54U A135U,2.01
14,U57A A91G,0.54
15,A56G A96U,1.64
16,A54G A129G,0.58
17,A54G A129C,0.76
18,A55G G119C,1.03
19,A56G A66G,0.93
20,A56G A66C,1.76
21,U57C U97A,1.32
22,A54U G115U,0.03
23,A55U A125G,0.35
24,A56U A126U,0.81

row,Variant,self-cleavage
1,A56U A126G,1.34
2,A56G A95G,1.69
3,A56C A118G,0.63
4,A54U U100A,0.59
5,A54G A135G,1.13
6,A54G A135U,0.73
7,U57A G136A,1.37
8,A55G A90U,2.14
9,A55G A90G,0.76
10,A56U U127C,1.47
11,A56G A68C,2.25
12,A55C A110G,1.02
13,A55C G106A,0.02
14,A55U A67U,1.6
15,A55U A67G,1.12
16,A55G U127A,1.65
17,A55G G106U,0.02
18,A55G U130A,0.52
19,A56U C128A,1.6
20,U57C G106A,0
21,U57C A64G,0.81
22,A56G A126G,0.36
23,A54G A140G,2.22
24,A55U U132C,2.21

row,Variant,self-cleavage
1,U57C U124G,0.94
2,U57C U124C,0.59
3,A56G U133C,1.43
4,A55G A69U,0.23
5,A55G A69G,0.78
6,A54G A134G,1.2
7,A56G A94U,1.08
8,A55U U120C,0.86
9,U57A A90G,0.76
10,A55U A82G,0.61
11,A55G U120C,0.85
12,A55G U108G,0.03
13,A56G A114G,0.31
14,A56G A114C,0.02
15,A56G A114U,0.08
16,U57A U127A,1.95
17,U57A U127C,0.65
18,A55U A126G,1.47
19,A55U A92U,2.65
20,A55U A92G,1.36
21,A54G G106U,0.02
22,A55G A89G,0.59
23,A55G A89U,1.55
24,U57A A59G,0.5

row,Variant,self-cleavage
1,U57A A59U,2.2
2,A56G U87A,1.54
3,A55G A111G,0.03
4,A55U A56C,2.18
5,A55G C76A,0.55
6,U57C U87C,0.63
7,U57C U70C,0.47
8,A54G A126U,0.42
9,A56G A89U,1.09
10,A55G G74U,0.1
11,A55G A126G,0.33
12,A55G A126U,0.86
13,A54G G136U,2.55
14,U57C U102G,0.29
15,U57C U102A,0.48
16,U57C U102C,1.38
17,A56G U120C,0.89
18,A56G U120G,1.98
19,U57A A86G,1.09
20,U57A G123C,1.58
21,A56G A62U,2.29
22,U57A A62G,1.13
23,A55U U122A,0.96
24,U57A G106A,0.01

row,Variant,self-cleavage
1,U57C A94G,1.62
2,A54G U72A,0.19
3,A54G U72C,0.23
4,A55C G79A,0.49
5,A56C U108C,0.01
6,A56G A78G,0.25
7,A56G A78C,0.22
8,A56G A78U,0.2
9,U57C U120A,2.01
10,U57C U120C,0.41
11,A56C A59G,1.51
12,U57A U70C,0.48
13,A55G A66G,1.4
14,A54G G123A,1.14
15,U57C U122C,0.84
16,U57C U122A,1.35
17,A54G U108C,0.02
18,U57A U139A,0.91
19,A55G A92U,1.65
20,A55U U133A,1.58
21,A56G G83U,0.73
22,A54G G75U,0.12
23,A54G G104A,0.09
24,U57C A89U,0.77

row,Variant,self-cleavage
1,A55G A117G,0.76
2,A56G U57A,1.53
3,A54U U70C,0.53
4,A54U U131C,1.11
5,U57C G75A,0.12
6,U57C G75C,0.17
7,U57A U100C,2.19
8,A55G A98C,1.25
9,A55G U102A,0.81
10,U57C C88U,1.04
11,A56G G115U,0.03
12,A56G G115A,0.11
13,A55U A89U,0.56
14,A55G A86G,1.17
15,A55G A110C,0.2
16,A55G A129U,1.43
17,A55U A114G,0.21
18,A55U A114U,0.03
19,A55G A116U,0.27
20,A54G C112G,0.01
21,A55C U57A,1.84
22,A56U U97C,1.16
23,U57C U100C,1.83
24,A54G U100A,0.57

row,Variant,self-cleavage
1,A56G U122C,0.91
2,A54G U122C,1
3,A54G U122A,1.72
4,U57A U102C,0.78
5,A55U U102C,1.73
6,A55U U102A,1.44
7,A55U U57G,1.54
8,A54G A125G,0.81
9,A55G U132C,1.46
10,A55G U132A,1.61
11,U57A U131C,1.07
12,A56U U130C,0.34
13,A55U A64G,1.76
14,U57C A92G,0.71
15,U57A A66G,0.73
16,A55G U72A,0.19
17,A55G U72C,0.28
18,A54U A125G,0.83
19,A55G C77U,1.41
20,A54U A98G,0.2
21,A54G A116G,0.75
22,A54G A116U,0.27
23,A55G A95C,1.02
24,A56G A116G,0.66

row,Variant,self-cleavage
1,U57A A78U,0.16
2,A54U U87C,1.34
3,A54G U130A,1.11
4,A54G U130C,0.76
5,A56G A117G,1.3
6,A54G C85A,0.82
7,A55G A134G,1.23
8,A55G U87C,0.64
9,U57C A86U,1.93
10,A54U A69G,0.53
11,A54G A117U,0.91
12,A55C A126G,1.09
13,A54U U139A,1.63
14,A54U U139C,1.45
15,A56G U103C,0.25
16,A56G U103A,0.04
17,A56G U100C,2.18
18,A56C A117U,0.96
19,A54G U57A,1.26
20,A55G C128A,1.06
21,U57A A69G,0.95
22,U57A A69C,0.34
23,A55G A59U,1.13
24,A55G A135G,1.57

row,Variant,self-cleavage
1,A55G A94C,1.34
2,A55C A59U,1.8
3,U57C A68G,0.95
4,A54U U102C,1.59
5,A56G A110G,0.07
6,A55G G83A,0.71
7,U57A A118G,1.37
8,U57C U132C,0.52
9,A56G U139A,1.41
10,A56G U139C,0.78
11,A55U U131C,2
12,A56G A90G,1.03
13,A55G A82U,0.22
14,A55G A82G,0.83
15,U57A A98G,0.42
16,U57A A98C,1.24
17,A56G A86U,1.67
18,A56G A86C,1.48
19,A56G A86G,0.8
20,A55U U124A,1.07
21,A56G G119A,2.09
22,A54U A116G,0.83
23,A56G U102A,0.97
24,U57C C76U,0.13

row,Variant,self-cleavage
1,A56G A129G,1.45
2,A56G A129C,1.03
3,U57A A68U,1.15
4,U57C A82G,0.49
5,A55G A96U,1.11
6,A56G A67G,0.97
7,A56G G74U,0.14
8,A56G A63U,1.68
9,A54U A82U,0.24
10,A54G C105A,0.06
11,A56G A59G,1.2
12,U57C G84A,1.76
13,A56G A125U,1.32
14,A56G A125G,0.51
15,A56U A110U,1
16,A56U A96C,0.35
17,U57A G75A,0.27
18,A55G U103A,0.46
19,A55G U103C,1.06
20,A54U U103G,0.04
21,A54U U103C,1.26
22,A56G G106U,0.01
23,A55U U87C,1.64
24,A56G U132A,2.05

row,Variant,self-cleavage
1,A55G A114G,0.32
2,A56G C128U,0.54
3,A54G U127C,1.07
4,A56G C107A,0.02
5,A55G U131C,1.63
6,A54G A111G,0.03
7,A54G A111U,0.06
8,A56G A111G,0.01
9,A54G U132A,1.73
10,A55G A63C,0.12
11,A55G U124C,0.5
12,A55G U124A,0.97
13,U57A A125U,1.1
14,A56C A116U,0.13
15,A55G A125G,0.45
16,U57C A140G,1.11
17,A54G C81U,0.19
18,U57C A118G,0.43
19,U57C A118U,0.37
20,U57A A82U,0.31
21,U57C C121A,1.91
22,U57C C121U,2.46
23,A56G U97A,2.36
24,A56U A59G,1.62

row,Variant,self-cleavage
1,A55G U57G,1.41
2,A55G U57C,1.13
3,U57A A63G,1.7
4,A54U G106A,0.02
5,A56G A140U,2.1
6,U57C A59G,0.57
7,A55G C109U,0.82
8,A55U A62G,0.23
9,A54G C128U,1.08
10,U57C C105U,0.15
11,A55U A98G,0.19
12,A55U A98U,2.38
13,U57C A135G,1.34
14,A54G U120C,0.3
15,A54G U120A,1.89
16,A55G U70C,0.29
17,U57C G73A,0.15
18,U57C A111U,0.08
19,U57C A111G,0.01
20,U57A A92G,1.42
21,A54U A64G,1.55
22,A55G A91G,0.98
